Source: patent US20240384250A1, “FIBROBLAST GROWTH FACTOR 23 MODULATING COMPOUNDS” (THE UAB RESEARCH FOUNDATION, priority 2021, published 2024)
Entries after “also recorded” stand apart in the source; their conditions may differ.

Assays:
Experiment in all cases: Plate-based binding, FGF23 coated, then sKL, heparin or PBS, then Fc-FGFR
Details in all cases: with sKL, with heparin 0.4 USP, or alone
FGF23 binding to FGFR2c = target: T1, FGF23 binding to FGFR2c (Homo sapiens, UniProt P21802)
T1 construct: Fc-coupled FGFR ectodomains were immobilized on protein A/G beads; purchased R&D Systems 2604FG025/CF or 2629FG025/CF; 712FR050
Description: (§1) Proteins were coated on 96-well plates (MaxiSorp; 439454, Thermo Fisher Scientific), and proteins were added to wells in 100 μl of enzyme-linked immunosorbent assay (ELISA) coating buffer (E107, Bethyl Laboratories) with a lid placed overtop and incubated at 4° C. overnight. Plates were washed 5× with 350 μl of assay buffer (50 mM Tris [pH 7.4], 200 mM NaCl, 0.01% Tween 20) on a 50 TS microplate washer (BioTek). Plates were blocked for 1 hour in 200 μl of assay buffer with 0.5% BSA. Plates were washed as before, and proteins were incubated on plates in 100 μl of assay buffer with 0.5% BSA. Proteins or heparin was incubated in orders described in the respective figure legends. Assays using FLAG-tag-based detection were incubated with anti-FLAG coupled to HRP at 1:20,000, and assays using Fc detection were incubated with anti-human Fc coupled to HRP at 1:10,000. Plates were washed as above, and 100 μl of 3,3′,5,5′-tetramethylbenzidine (TMB) substrate (E102, Bethyl Laboratories) was added for 15 to 20 minutes until positive wells developed a dark blue color. Reactions were stopped with ELISA stop solution (E115, Bethyl Laboratories) and analyzed using the Synergy HI plate reader (BioTek) at 450 nm wavelength. […] As a control to remove background absorbance values, wells were coated with an equal amount of BSA to match the amount of protein coated in experimental wells and treated the same as experimental wells. To study the effects of sKL on the binding between paracrine FGFs and FGFRs, plates were run as above except coated with paracrine FGFs. Fc-FGFR1 was preincubated with sKL or vehicle for 60 minutes, and then the combination was added to wells and the assay was run as before.

FGF23 binding to FGFR1c = target: T2, FGF23 binding to FGFR1c (Homo sapiens, UniProt P11362+Q9GZV9)
T2 construct: Fc-coupled FGFR ectodomains were immobilized on protein A/G beads; purchased R&D Systems 2604FG025/CF or 2629FG025/CF; 658FR050
T2 sequence (Q9GZV9 25-251): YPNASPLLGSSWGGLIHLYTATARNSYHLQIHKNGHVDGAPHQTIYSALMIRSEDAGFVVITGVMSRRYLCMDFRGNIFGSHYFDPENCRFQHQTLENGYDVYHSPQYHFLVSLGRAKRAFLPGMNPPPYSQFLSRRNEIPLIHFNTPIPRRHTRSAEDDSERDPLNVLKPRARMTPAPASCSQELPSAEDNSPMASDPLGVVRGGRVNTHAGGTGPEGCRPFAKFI
T2 sequence (P11362 22-376 limits assumed): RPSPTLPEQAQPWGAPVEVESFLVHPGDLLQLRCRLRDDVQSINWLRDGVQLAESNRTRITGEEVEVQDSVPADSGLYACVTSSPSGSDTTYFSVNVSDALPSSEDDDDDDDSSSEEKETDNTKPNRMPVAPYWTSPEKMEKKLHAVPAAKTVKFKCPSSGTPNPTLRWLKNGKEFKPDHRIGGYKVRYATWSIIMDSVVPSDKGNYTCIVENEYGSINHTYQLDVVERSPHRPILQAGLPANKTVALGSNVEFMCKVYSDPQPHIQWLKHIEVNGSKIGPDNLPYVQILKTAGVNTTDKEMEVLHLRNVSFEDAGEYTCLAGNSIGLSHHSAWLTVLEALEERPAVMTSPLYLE
Description: as §1

FGF23 binding to FGFR3c = target: T3, FGF23 binding to FGFR3c (Homo sapiens, UniProt P22607+Q9GZV9)
T3 construct: Fc-coupled FGFR ectodomains were immobilized on protein A/G beads; purchased R&D Systems 2604FG025/CF or 2629FG025/CF; 766FR050
T3 sequence (Q9GZV9 25-251): T2 sequence (Q9GZV9 25-251)
T3 sequence (P22607 23-375 limits assumed): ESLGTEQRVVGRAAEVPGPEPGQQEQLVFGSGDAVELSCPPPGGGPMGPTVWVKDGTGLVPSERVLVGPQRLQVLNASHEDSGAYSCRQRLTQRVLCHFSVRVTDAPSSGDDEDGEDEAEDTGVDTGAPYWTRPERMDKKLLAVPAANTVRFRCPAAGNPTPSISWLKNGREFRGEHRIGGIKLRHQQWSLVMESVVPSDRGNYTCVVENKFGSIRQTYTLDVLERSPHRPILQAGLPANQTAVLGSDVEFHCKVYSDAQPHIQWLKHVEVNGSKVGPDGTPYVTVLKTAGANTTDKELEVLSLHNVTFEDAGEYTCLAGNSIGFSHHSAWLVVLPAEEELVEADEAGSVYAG
Description: as §1

T1 sequence (P21802 22-377 limits assumed): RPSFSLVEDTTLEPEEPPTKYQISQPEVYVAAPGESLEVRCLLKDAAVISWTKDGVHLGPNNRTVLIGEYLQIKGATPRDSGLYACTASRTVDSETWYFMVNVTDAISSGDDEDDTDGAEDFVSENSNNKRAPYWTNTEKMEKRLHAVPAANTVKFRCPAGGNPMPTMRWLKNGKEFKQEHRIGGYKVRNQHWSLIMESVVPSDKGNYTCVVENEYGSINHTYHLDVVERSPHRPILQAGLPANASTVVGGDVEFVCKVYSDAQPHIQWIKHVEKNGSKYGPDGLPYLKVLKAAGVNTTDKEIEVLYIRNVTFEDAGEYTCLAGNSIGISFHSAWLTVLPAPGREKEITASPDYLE

binding of coated FGF23 to Fc-FGFR2c (FGF23 binding to FGFR2c): no binding
B1: sKL: recombinant soluble α-klotho ectodomain, mouse aa 35-982 and human aa 34-981, FLAG- or Strep/His-tagged, purified from HEK293 cells (protein)
chain: EPGDGAQTWARFSRPPAPEAAGLFQGTFPDGFLWAVGSAAYQTEGGWQQHGKGASIWDTFTHHPLAPPGDSRNASLPLGAPSPLQPATGDVASDSYNNVFRDTEALRELGVTHYRFSISWARVLPNGSAGVPNREGLRYYRRLLERLRELGVQPVVTLYHWDLPQRLQDAYGGWANRALADHFRDYAELCFRHFGGQVKYWITIDNPYVVAWHGYATGRLAPGIRGSPRLGYLVAHNLLLAHAKVWHLYNTSFRPTQGGQVSIALSSHWINPRRMTDHSIKECQKSLDFVLGWFAKPVFIDGDYPESMKNNLSSILPDFTESEKKFIKGTADFFALCFGPTLSFQLLDPHMKFRQLESPNLRQLLSWIDLEFNHPQIFIVENGWFVSGTTKRDDAKYMYYLKKFIMETLKAIKLDGVDVIGYTAWSLMDGFEWHRGYSIRRGLFYVDFLSQDKMLLPKSSALFYQKLIEKNGFPPLPENQPLEGTFPCDFAWGVVDNYIQVDTTLSQFTDLNVYLWDVHHSKRLIKVDGVVTKKRKSYCVDFAAIQPQIALLQEMHVTHFRFSLDWALILPLGNQSQVNHTILQYYRCMASELVRVNITPVVALWQPMAPNQGLPRLLARQGAWENPYTALAFAEYARLCFQELGHHVKLWITMNEPYTRNMTYSAGHNLLKAHALAWHVYNEKFRHAQNGKISIALQADWIEPACPFSQKDKEVAERVLEFDIGWLAEPIFGSGDYPWVMRDWLNQRNNFLLPYFTEDEKKLIQGTFDFLALSHYTTILVDSEKEDPIKYNDYLEVQEMTDITWLNSPSQVAVVPWGLRKVLNWLKFKYGDLPMYIISNGIDDGLHAEDDQLRVYYMQNYINEALKAHILDGINLCGYFAYSFNDRTAPRFGLYRYAADQFEPKASMKHYRKIIDSNGFPGPETLERFCPEEFTVCTECSFFHTRKS
modifications: left off: small tags and cut ends
notes: recombinant soluble α-klotho ectodomain, mouse aa 35-982 and human aa 34-981, FLAG- or Strep/His-tagged, purified from HEK293 cells
binding of coated FGF23 to Fc-FGFR1c (FGF23 binding to FGFR1c): highest FGF23-sKL affinities; also recorded: increased; also recorded: the strongest
binding of coated FGF23 to Fc-FGFR3c (FGF23 binding to FGFR3c): lower affinity; also recorded: weaker binding
